This passage reports apoptotic figures in CXCR4+ M5 colorectal tumors of mice, 0.5 to 24 h after a single 200 µg i.v. dose (histology); peak results from PMC8230831.

The assay addresses CXC chemokine receptor 4 (CXCR4) (human (endogenous in HeLa)) (UniProt P61073). Conditions: scale: apoptotic figures per 400 x magnification tumor field.
Chain of UniProt P61073 (P61073 whole entry): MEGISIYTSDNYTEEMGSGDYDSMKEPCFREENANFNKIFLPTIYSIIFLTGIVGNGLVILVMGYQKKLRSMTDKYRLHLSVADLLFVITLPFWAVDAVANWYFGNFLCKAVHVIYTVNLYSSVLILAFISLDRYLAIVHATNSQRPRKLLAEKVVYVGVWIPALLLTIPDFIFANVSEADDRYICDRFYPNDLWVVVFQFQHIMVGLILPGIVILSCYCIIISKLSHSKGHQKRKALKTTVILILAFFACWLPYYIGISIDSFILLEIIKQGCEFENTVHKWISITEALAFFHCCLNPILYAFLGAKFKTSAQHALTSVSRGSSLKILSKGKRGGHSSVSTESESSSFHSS

“biparatopic EPIX4-(RK)-GFP-H6/T22-GFP-H6 NPs (complex)” yielded an apoptotic figures in CXCR4+ M5 colorectal tumors of mice, 0.5 to 24 h after a single 200 µg i.v. dose (histology); peak at 24 h of 30.
